Data on 9 molecules can be found in patent US20100144607 (published 2010).

Bridge positions count the residues as written; N and C are the ends. Ends that are not written are not given here.

B1: Seq03 (peptide)
chain: VEQCTIIGDAKDC
modifications: disulfide 4-13
B2: Seq02 (peptide)
chain: VEQCTIIGDEKDC
modifications: disulfide 4-13
B3: Seq04 (peptide)
chain: VQQCSEIAGAKPC
modifications: disulfide 4-13
B4: Seq08 (peptide)
chain: IPRCRKMPGVKMC
modifications: disulfide 4-13; not fully specified
B5: Seq06 (peptide)
chain: IPRCRAMPGVKMC
modifications: disulfide 4-13
B6: Seq05 (peptide)
chain: LHRCDKIADAKPC
modifications: disulfide 4-13
B7: Seq01 (peptide)
chain: IPRCRKMPGVKMC
modifications: disulfide 4-13
B8: Seq07 (peptide)
chain: IPRCRKMPGVKMC
modifications: disulfide 4-13; not fully specified
B9: Seq09 (peptide)
chain: IPRCRKMPGVKMC
modifications: disulfide 4-13; not fully specified

For this assay, the target named is trypsin. Nature of the assay: other, trypsin inhibition.
The Ki is a measure of affinity in units of concentration, obtained from inhibition or displacement. High values mean lower affinity, low ones higher affinity. For B1, the Ki stood at 63.6 nM. Take B2: the affinity corresponds to a Ki of 24 nM. In turn, B3 showed a Ki of 42 nM. Turning to B4, the Ki worked out at 24.8 nM. For B5 the value was 24.2 nM; for B6, 44 nM.

Take B7: affinity was put at a Ki of 22.5 nM. For B8 the value was 20 nM.

As for B9, the Ki stood at 21.8 nM.
